Stoichiometry N data for 1 substance are collected here from PMC6855462.

The assay has as its target FL H1#5070 (full-length HA of H1 A/Brisbane/59/2007, C-terminally modified with a sortase A LPXTG recognition sequence, biotinylated HA probe) (influenza A virus H1 A/Brisbane/59/2007). Briefly: SEC-MALS; Superdex 200 10-300 GL column, after sortase-mediated biotinylation; trimeric fractions collected; stored in 20mM Tris, 150mM NaCl, pH7.8.

Regarding “FL H1#5070 (full-length HA of H1 A/Brisbane/59/2007, C-terminally modified with a sortase A LPXTG recognition sequence, biotinylated HA probe) (natural protein)”, the stoichiometry N is 3.
